PMC6234840 (Nature, 2018)

Target: GST-eIF3h (human, UniProt O15372 1-352)
Test: pull-down

Sequence of GST-eIF3h (O15372 whole entry): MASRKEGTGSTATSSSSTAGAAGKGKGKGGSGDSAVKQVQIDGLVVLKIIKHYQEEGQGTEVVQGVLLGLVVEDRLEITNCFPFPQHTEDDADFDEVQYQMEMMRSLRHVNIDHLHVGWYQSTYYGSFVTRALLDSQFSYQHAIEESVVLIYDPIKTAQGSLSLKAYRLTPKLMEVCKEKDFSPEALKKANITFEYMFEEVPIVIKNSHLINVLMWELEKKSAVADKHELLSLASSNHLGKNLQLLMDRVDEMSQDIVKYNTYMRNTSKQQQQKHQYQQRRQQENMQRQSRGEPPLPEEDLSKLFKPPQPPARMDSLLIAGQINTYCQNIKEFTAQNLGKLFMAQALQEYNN

B1: His-METTL3 1-200 amino acid fragment (domain or fragment)
chain: MSDTWSSIQAHKKQLDSLRERLQRRRKQDSGHLDLRNPEAALSPTFRSDSPVPTAPTSGGPKPSTASAVPELATDPELEKKLLHHLSDLALTLPTDAVSICLAISTPDAPATQDGVESLLQKFAAQELIEVKRGLLQDDAHPTLVTYADHSKLSAMMGAVAEKKGPGEVAGTVTGQKRRAEQDSTTVAAFASSLVSGLNS
binding result: binds
